Laboratory results from patent US20160168247A1 (published 2016).
Changes are numbered by the printed parent chain.

T1: HSC-F (cynomolgus monkey, UniProt Q95LI8 22-171; Q95LI7 23-181)
T1 chain: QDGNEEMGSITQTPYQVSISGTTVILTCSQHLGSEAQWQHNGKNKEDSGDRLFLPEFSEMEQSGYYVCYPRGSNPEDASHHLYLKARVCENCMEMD

B1: bsIgG1-huCD3-H1L1xHER2-LFLEDA (bispecific antibody, V domains shown)
VH 1: EVKLVESGGGLVQPGGSLRLSCAASGFTFNTYAMNWVRQAPGKGLEWVARIRSKYNNYATYYADSVKDRFTISRDDSKSSLYLQMNNLKTEDTAMYYCVRHGNFGNSYVSWFAYWGQGTLVTVSS
VL 1: not shown
VH 2: QVQLVQSGAEVKKPGASVKVSCKASGYTFTNYGISWVRQAPGQGLEWMGWLSAYSGNTIYAQKLQGRVTMTTDTSTTTAYMELRSLRSDDTAVYYCARDRIVVRPDYFDYWGQGTLVTVSS
VL 2: EIVLTQSPATLSLSPGERATLSCRASQSVSSYLAWYQQKPGQAPRLLIYDASNRATGIPARFSGSGSGTDFTLTISSLEPEDFAVYYCQQRSNWPRTFGQGTKVEIK
B2: bsIgG1-huCD3-H3L1xHER2-LFLEDA (bispecific antibody, V domains shown)
VH 1: B1 VH 1 with Q13K, G16R, S80I, N87S
VL 1: not shown
VH 2: B1 VH 2
VL 2: B1 VL 2
B3: bsIgG1-huCD3-H1L3xHER2-LFLEDA (bispecific antibody, V domains shown)
VH 1: B1 VH 1
VL 1: QAVVTQEPSFSVSPGGTVTLTCRSSTGAVTTSNYANWVQQTPGQAFRGLIGGTNKRAPGVPARFSGSILGNKAALTITGAQADDESDYYCALWYSNLWVFGGGTKLTVL
VH 2: B1 VH 2
VL 2: B1 VL 2
B4: bsIgG1-huCD3-H3L3xHER2-LFLEDA (bispecific antibody, V domains shown)
VH 1: B1 VH 1 with Q13K, G16R, S80I, N87S
VL 1: B3 VL 1
VH 2: B1 VH 2
VL 2: B1 VL 2
B5: bsIgG1-huCD3-H4L1xHER2-LFLEDA (bispecific antibody, V domains shown)
VH 1: B1 VH 1 with Q13K, G16R, S80I, N87S, L120M
VL 1: not shown
VH 2: B1 VH 2
VL 2: B1 VL 2
B6: IgG1-CD3-LFLEDA (antibody, V domains shown)
VH: B1 VH 1 with V5L, G15K, R19K, K78Q, S80I, S125A
VL: QAVVTQESALTTSPGETVTLTCRSSTGAVTTSNYANWVQEKPDHLFTGLIGGTNKRAPGVPARFSGSLIGDKAALTITGAQTEDEAIYFCALWYSNLWVFGGGTKLTVL
B7: IgG1-huCD3-H3L1-LFLEDA (antibody, V domains shown)
VH: B1 VH 1 with Q13K, G16R, S80I, N87S
VL: not shown
B8: IgG1-CD3-LFLEDA (parental chimeric CD3 antibody with non-activating LFLEDA mutations) (antibody, V domains shown)
VH: B1 VH 1 with V5L, G15K, R19K, K78Q, S80I, S125A
VL: B6 VL
B9: IgG1-huCD3-H4L1-LFLEDA (antibody, V domains shown)
VH: B1 VH 1 with Q13K, G16R, S80I, N87S, L120M
VL: not shown
B10: IgG1-huCD3-H1L3-LFLEDA (antibody, V domains shown)
VH: B1 VH 1
VL: B3 VL 1
B11: IgG1-huCD3-H3L3-LFLEDA (antibody, V domains shown)
VH: B1 VH 1 with Q13K, G16R, S80I, N87S
VL: B3 VL 1
B12: IgG1-huCD3-H4L3-LFLEDA (antibody, V domains shown)
VH: B1 VH 1 with Q13K, G16R, S80I, N87S, L120M
VL: B3 VL 1
B13: IgG1-huCD3-H1L1-LFLEDA (antibody, V domains shown)
VH: B1 VH 1
VL: not shown
B14: bsIgG1 huCD3-H3L1×HER2-LFLEDA (bispecific antibody, V domains shown)
VH 1: B1 VH 1 with Q13K, G16R, S80I, N87S
VL 1: not shown
VH 2: B1 VH 2
VL 2: B1 VL 2
B15: bsIgG1-huCD3-H4L1×HER2-LFLEDA (bispecific antibody, V domains shown)
VH 1: B1 VH 1 with Q13K, G16R, S80I, N87S, L120M
VL 1: not shown
VH 2: B1 VH 2
VL 2: B1 VL 2
B16: bsIgG1-huCD3-H1L3×HER2-LFLEDA (bispecific antibody, V domains shown)
VH 1: B1 VH 1
VL 1: B3 VL 1
VH 2: B1 VH 2
VL 2: B1 VL 2
B17: bsIgG1-huCD3-H4L3×HER2-LFLEDA (bispecific antibody, V domains shown)
VH 1: B1 VH 1 with Q13K, G16R, S80I, N87S, L120M
VL 1: B3 VL 1
VH 2: B1 VH 2
VL 2: B1 VL 2
B18: bsIgG1-huCD3-H3L3×HER2-LFLEDA (bispecific antibody, V domains shown)
VH 1: B1 VH 1 with Q13K, G16R, S80I, N87S
VL 1: B3 VL 1
VH 2: B1 VH 2
VL 2: B1 VL 2
B19: IgG1-huCD3-H1L2 (antibody, V domains shown)
VH: B1 VH 1
VL: B3 VL 1 with D87I, Y89F
B20: IgG1-huCD3-H3L3 (antibody, V domains shown)
VH: B1 VH 1 with Q13K, G16R, S80I, N87S
VL: B3 VL 1
B21: IgG1-huCD3-H4L1 (antibody, V domains shown)
VH: B1 VH 1 with Q13K, G16R, S80I, N87S, L120M
VL: not shown
B22: IgG1-huCD3-H1L3 (antibody, V domains shown)
VH: B1 VH 1
VL: B3 VL 1
B23: IgG1-huCD3-H1L1 (antibody, V domains shown)
VH: B1 VH 1
VL: not shown
B24: bsIgG1 huCD3-H3L1xHER2-LFLEDA (bispecific antibody, V domains shown)
VH 1: B1 VH 1 with Q13K, G16R, S80I, N87S
VL 1: not shown
VH 2: B1 VH 2
VL 2: B1 VL 2
B25: bsIgG1 CD3xHER2-LFLEDA (bispecific antibody, V domains shown)
VH 1: B1 VH 1 with V5L, G15K, R19K, K78Q, S80I, S125A
VL 1: B6 VL
VH 2: B1 VH 2
VL 2: B1 VL 2
B26: bsIgG1 CD3×HER2 (bispecific antibody, V domains shown)
VH 1: B1 VH 1 with V5L, G15K, R19K, K78Q, S80I, S125A
VL 1: B6 VL
VH 2: B1 VH 2
VL 2: B1 VL 2

Target: T1, HSC-F
Experiment: FACS binding

B1 and B2 are within 1.5-fold of each other in EC50: 0.32 µg/mL for the first, 0.28 µg/mL for the second.

B3 and B4 are within 1.5-fold of each other in EC50: 0.25 µg/mL for the first, 0.26 µg/mL for the second.

Going from B5 to B6, the EC50 falls from 0.36 µg/mL to 0.06 µg/mL (6-fold).

The binders below were run against T2, human CD3 (on the human T-cell line Jurkat or on human T-cells) (human, UniProt P09693 23-182; P20963 22-164) (assay: FACS binding).
T2 sequence (chain, as listed by the source, chain 1 of 4): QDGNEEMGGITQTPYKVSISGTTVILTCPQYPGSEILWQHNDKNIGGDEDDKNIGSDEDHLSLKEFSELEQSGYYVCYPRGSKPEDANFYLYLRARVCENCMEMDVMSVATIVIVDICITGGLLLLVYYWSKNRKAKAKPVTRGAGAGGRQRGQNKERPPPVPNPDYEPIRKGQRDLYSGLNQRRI
T2 sequence (chain, as listed by the source, chain 2 of 4): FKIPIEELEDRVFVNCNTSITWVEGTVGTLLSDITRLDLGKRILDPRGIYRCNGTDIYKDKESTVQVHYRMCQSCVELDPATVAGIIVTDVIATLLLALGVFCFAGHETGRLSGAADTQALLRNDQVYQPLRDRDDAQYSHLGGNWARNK
T2 sequence (P09693 23-182, chain 3 of 4): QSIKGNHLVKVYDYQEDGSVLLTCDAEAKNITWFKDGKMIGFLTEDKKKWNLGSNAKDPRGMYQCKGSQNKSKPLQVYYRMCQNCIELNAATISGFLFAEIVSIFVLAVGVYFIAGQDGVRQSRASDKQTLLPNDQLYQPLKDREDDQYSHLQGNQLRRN
T2 sequence (P20963 22-164, chain 4 of 4): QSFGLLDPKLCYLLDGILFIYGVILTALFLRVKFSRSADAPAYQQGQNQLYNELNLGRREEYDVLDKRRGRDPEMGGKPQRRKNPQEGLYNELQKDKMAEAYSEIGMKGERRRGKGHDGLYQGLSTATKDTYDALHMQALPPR

Compared with B7, B8 is 2.7-fold higher in EC50: 0.1 µg/mL for the first, 0.27 µg/mL for the second.

Going from B9 to B10, the EC50 rises from 0.06 µg/mL to 0.11 µg/mL (1.8-fold).

B11 and B12 are the same in EC50: 0.08 µg/mL for the first, 0.08 µg/mL for the second.

Target: T1, HSC-F
Experiment: FACS binding
Remark: another data set of the same source

B7 and B9 are within 1.5-fold of each other in EC50: 0.04 µg/mL for the first, 0.03 µg/mL for the second.

B13 and B10 are the same in EC50: 0.03 µg/mL for the first, 0.03 µg/mL for the second.

Compared with B6, B11 is 2-fold lower in EC50: 0.06 µg/mL for the first, 0.03 µg/mL for the second.

In the case of B12, the EC50 is reported as 0.02 µg/mL.

Target: T2, human CD3 (on the human T-cell line …)
Experiment: FACS binding
Remark: another data set of the same source

B14 and B15 are within 1.5-fold of each other in EC50: 0.64 µg/mL for the first, 0.62 µg/mL for the second.

Compared with B8, B16 is 3.2-fold higher in EC50: 0.18 µg/mL for the first, 0.58 µg/mL for the second.

B17 and B18 are within 1.5-fold of each other in EC50: 0.59 µg/mL for the first, 0.74 µg/mL for the second.

Target: T1, HSC-F
Experiment: FACS binding; Fig 2A

Going from B7 to B19, the EC50 rises from 0.19 µg/mL to 0.31 µg/mL (1.6-fold).

Going from B20 to B21, the EC50 rises from 0.11 µg/mL to 0.26 µg/mL (2.4-fold).

B22 and B6 are within 1.5-fold of each other in EC50: 0.28 µg/mL for the first, 0.3 µg/mL for the second.

B23 was tested, and the EC50 was 0.37 µg/mL.

Target: T1, HSC-F
Experiment: FACS binding; Fig 2B

First: B7
Second: B24
The EC50 of the first is 12-fold lower: 0.3 µg/mL for the first, 3.54 µg/mL for the second.

First: B25
Second: B6
The EC50 of the first is 9.5-fold higher: 4.46 µg/mL for the first, 0.47 µg/mL for the second.

Each binder was assayed against T2, human CD3 (on the human T-cell line …) (assay: FACS binding; Fig 1A).

First: B7
Second: B8
The EC50 of the first is 2-fold lower: 0.04 µg/mL for the first, 0.08 µg/mL for the second.

Going from B19 to B20, the EC50 falls from 0.08 µg/mL to 0.02 µg/mL (4-fold).

B21 and B22 are within 1.5-fold of each other in EC50: 0.05 µg/mL for the first, 0.06 µg/mL for the second.

The binders below were run against T2, human CD3 (on the human T-cell line …) (assay: FACS binding; Fig 1B).

Going from B26 to B14, the EC50 falls from 0.68 µg/mL to 0.28 µg/mL (2.4-fold).

First: B7
Second: B8
The EC50 of the first is 1.8-fold lower: 0.04 µg/mL for the first, 0.07 µg/mL for the second.
